Values joined by “and” are separate entries in the source; they are usually repeats but may differ in a detail not shown here. Equal values may be shown once.
Assays:
[1] = target: canine FcRn (FcRn large subunit with canine beta-2-microglobulin) (canine); assay: SPR pH 5.5, SASA-Fc captured on BSA, FcRn 100-800 nM
[2] = target: canine FcRn (FcRn large subunit with canine beta-2-microglobulin) (canine); assay: SPR pH 6.0, IgG coupled to CM5, FcRn 50-800 nM
[3] = target: canine FcRn (FcRn large subunit with canine beta-2-microglobulin) (canine); assay: SPR pH 7.4, FcRn coupled at high density, IgG 400 nM
[4] = target: canine FcRn (FcRn large subunit with canine beta-2-microglobulin) (canine); assay: SPR pH 5.9, IgG coupled to C1 chip, 1:1 kinetic fit
[5] = target: canine FcRn (FcRn large subunit with canine beta-2-microglobulin) (canine); assay: SPR pH 5.5, SASA-Fc captured on BSA, FcRn 400 nM

Kd [2] [nM]	koff [2] [s⁻¹]	kon [2] [M⁻¹ s⁻¹]	Kd [3] [nM]	Kd [4] [nM]	koff [4] [s⁻¹]	kon [4] [M⁻¹ s⁻¹]	other results	Binder
–	–	–	–	–	–	–	Kd [1]: 247 nM; koff [1]: 0.102 s⁻¹; kon [1]: 411000 M⁻¹ s⁻¹	canine IgGB Fc (CH2-CH3) N434H with N-terminal SASA tag (Fc fusion, part only; not given: SASA tag, not shown: another chain or arm of the molecule; small tags and cut ends) Fc: APEMLGGPSVFIFPPKPKDTLLIARTPEVTCVVVDLDPEDPEVQISWFVDGKQMQTAKTQPREEQFNGTYRVVSVLPIGHQDWLKGKQFTCKVNNKALPSPIERTISKARGQAHQPSVYVLPPSREELSKNTVSLTCLIKDFFPPDIDVEWQSNGQQEPESKYRTTPPQLDEDGSYFLYSKLSVDKSRWQRGDTFICAVMHEALHHHYTQESLSHSPGK
320	0.0838	262000	382	–	–	–	koff [3]: 0.255 s⁻¹; kon [3]: 666000 M⁻¹ s⁻¹	anti-NGF canine IgGB antibody, Fc variant N434R + Y436H (antibody, part only; not given: Anti-NGF variable domains, not shown: another chain or arm of the molecule) Fc: APEMLGGPSVFIFPPKPKDTLLIARTPEVTCVVVDLDPEDPEVQISWFVDGKQMQTAKTQPREEQFNGTYRVVSVLPIGHQDWLKGKQFTCKVNNKALPSPIERTISKARGQAHQPSVYVLPPSREELSKNTVSLTCLIKDFFPPDIDVEWQSNGQQEPESKYRTTPPQLDEDGSYFLYSKLSVDKSRWQRGDTFICAVMHEALHRHHTQESLSHSPGK
507	0.0777	153000	–	57.7	0.0608	1.06e+06	–	anti-NGF canine IgGB antibody, Fc variant A426Y + Y436H (antibody, part only; not given: anti-NGF variable domains and light chain, not shown: another chain or arm of the molecule; small tags and cut ends) Fc: APEMLGGPSVFIFPPKPKDTLLIARTPEVTCVVVDLDPEDPEVQISWFVDGKQMQTAKTQPREEQFNGTYRVVSVLPIGHQDWLKGKQFTCKVNNKALPSPIERTISKARGQAHQPSVYVLPPSREELSKNTVSLTCLIKDFFPPDIDVEWQSNGQQEPESKYRTTPPQLDEDGSYFLYSKLSVDKSRWQRGDTFICYVMHEALHNHHTQESLSHSPGK
2270	0.202	88700	–	161	0.13	808000	–	anti-NGF canine IgGB antibody, Fc variant A426H + Y436H (antibody, part only; not given: anti-NGF variable domains and light chain, not shown: another chain or arm of the molecule; small tags and cut ends) Fc: APEMLGGPSVFIFPPKPKDTLLIARTPEVTCVVVDLDPEDPEVQISWFVDGKQMQTAKTQPREEQFNGTYRVVSVLPIGHQDWLKGKQFTCKVNNKALPSPIERTISKARGQAHQPSVYVLPPSREELSKNTVSLTCLIKDFFPPDIDVEWQSNGQQEPESKYRTTPPQLDEDGSYFLYSKLSVDKSRWQRGDTFICHVMHEALHNHHTQESLSHSPGK
–	–	–	–	–	–	–	Kd [5]: 368 nM and 370 nM; WT KD Avg/Variant KD [5]: 1.54 and 1.53; koff [5]: 0.894 s⁻¹ and 0.496 s⁻¹; kon [5]: 2.43e+06 M⁻¹ s⁻¹ and 1.34e+06 M⁻¹ s⁻¹	canine IgGB Fc (CH2-CH3) Q311A with N-terminal SASA tag (Fc fusion, part only; not given: SASA tag, not shown: another chain or arm of the molecule; small tags and cut ends) Fc: APEMLGGPSVFIFPPKPKDTLLIARTPEVTCVVVDLDPEDPEVQISWFVDGKQMQTAKTQPREEQFNGTYRVVSVLPIGHADWLKGKQFTCKVNNKALPSPIERTISKARGQAHQPSVYVLPPSREELSKNTVSLTCLIKDFFPPDIDVEWQSNGQQEPESKYRTTPPQLDEDGSYFLYSKLSVDKSRWQRGDTFICAVMHEALHNHYTQESLSHSPGK
–	–	–	–	–	–	–	Kd [5]: 245 nM and 294 nM; WT KD Avg/Variant KD [5]: 2.31 and 1.92	canine IgGB Fc (CH2-CH3) G309A with N-terminal SASA tag (Fc fusion, part only; not given: SASA tag, not shown: another chain or arm of the molecule; small tags and cut ends) Fc: APEMLGGPSVFIFPPKPKDTLLIARTPEVTCVVVDLDPEDPEVQISWFVDGKQMQTAKTQPREEQFNGTYRVVSVLPIAHQDWLKGKQFTCKVNNKALPSPIERTISKARGQAHQPSVYVLPPSREELSKNTVSLTCLIKDFFPPDIDVEWQSNGQQEPESKYRTTPPQLDEDGSYFLYSKLSVDKSRWQRGDTFICAVMHEALHNHYTQESLSHSPGK
173	0.031	180000	134	–	–	–	–	anti-NGF canine IgGB antibody, Fc variant N434R + T286L (antibody, part only; not given: Anti-NGF variable domains, not shown: another chain or arm of the molecule) Fc: APEMLGGPSVFIFPPKPKDTLLIARTPEVTCVVVDLDPEDPEVQISWFVDGKQMQLAKTQPREEQFNGTYRVVSVLPIGHQDWLKGKQFTCKVNNKALPSPIERTISKARGQAHQPSVYVLPPSREELSKNTVSLTCLIKDFFPPDIDVEWQSNGQQEPESKYRTTPPQLDEDGSYFLYSKLSVDKSRWQRGDTFICAVMHEALHRHYTQESLSHSPGK
–	–	–	–	7.26	0.0412	5.67e+06	–	anti-NGF canine IgGB antibody, Fc variant A426Y + T286L + Y436H (antibody, part only; not given: anti-NGF variable domains and light chain, not shown: another chain or arm of the molecule) Fc: APEMLGGPSVFIFPPKPKDTLLIARTPEVTCVVVDLDPEDPEVQISWFVDGKQMQLAKTQPREEQFNGTYRVVSVLPIGHQDWLKGKQFTCKVNNKALPSPIERTISKARGQAHQPSVYVLPPSREELSKNTVSLTCLIKDFFPPDIDVEWQSNGQQEPESKYRTTPPQLDEDGSYFLYSKLSVDKSRWQRGDTFICYVMHEALHNHHTQESLSHSPGK
197	0.048	244000	104	–	–	–	kon [3]: 4.95e+08 M⁻¹ s⁻¹	anti-NGF canine IgGB antibody, Fc variant N434R + D312P (antibody, part only; not given: anti-NGF variable domains and light chain, not shown: another chain or arm of the molecule) Fc: APEMLGGPSVFIFPPKPKDTLLIARTPEVTCVVVDLDPEDPEVQISWFVDGKQMQTAKTQPREEQFNGTYRVVSVLPIGHQPWLKGKQFTCKVNNKALPSPIERTISKARGQAHQPSVYVLPPSREELSKNTVSLTCLIKDFFPPDIDVEWQSNGQQEPESKYRTTPPQLDEDGSYFLYSKLSVDKSRWQRGDTFICAVMHEALHRHYTQESLSHSPGK
497	0.107	216000	234	–	–	–	kon [3]: 8.25e+08 M⁻¹ s⁻¹	anti-NGF canine IgGB antibody, Fc variant N434R (antibody, part only; not given: Anti-NGF variable domains, not shown: another chain or arm of the molecule) Fc: APEMLGGPSVFIFPPKPKDTLLIARTPEVTCVVVDLDPEDPEVQISWFVDGKQMQTAKTQPREEQFNGTYRVVSVLPIGHQDWLKGKQFTCKVNNKALPSPIERTISKARGQAHQPSVYVLPPSREELSKNTVSLTCLIKDFFPPDIDVEWQSNGQQEPESKYRTTPPQLDEDGSYFLYSKLSVDKSRWQRGDTFICAVMHEALHRHYTQESLSHSPGK
1040	0.124	119000	–	115	0.142	1.24e+06	–	anti-NGF canine IgGB antibody, Fc variant A426H (antibody, part only; not given: Anti-NGF variable domains, not shown: another chain or arm of the molecule; small tags and cut ends) Fc: APEMLGGPSVFIFPPKPKDTLLIARTPEVTCVVVDLDPEDPEVQISWFVDGKQMQTAKTQPREEQFNGTYRVVSVLPIGHQDWLKGKQFTCKVNNKALPSPIERTISKARGQAHQPSVYVLPPSREELSKNTVSLTCLIKDFFPPDIDVEWQSNGQQEPESKYRTTPPQLDEDGSYFLYSKLSVDKSRWQRGDTFICHVMHEALHNHYTQESLSHSPGK
–	–	–	–	–	–	–	Kd [5]: 673 nM and 592 nM; WT KD Avg/Variant KD [5]: 0.84 and 0.96; koff [5]: 0.183 s⁻¹ and 0.181 s⁻¹; kon [5]: 272000 M⁻¹ s⁻¹ and 306000 M⁻¹ s⁻¹	canine IgGB Fc (CH2-CH3) D378A with N-terminal SASA tag (Fc fusion, part only; not given: SASA tag, not shown: another chain or arm of the molecule; small tags and cut ends) Fc: APEMLGGPSVFIFPPKPKDTLLIARTPEVTCVVVDLDPEDPEVQISWFVDGKQMQTAKTQPREEQFNGTYRVVSVLPIGHQDWLKGKQFTCKVNNKALPSPIERTISKARGQAHQPSVYVLPPSREELSKNTVSLTCLIKDFFPPDIAVEWQSNGQQEPESKYRTTPPQLDEDGSYFLYSKLSVDKSRWQRGDTFICAVMHEALHNHYTQESLSHSPGK
93.7	0.0221	236000	81.2	–	–	–	kon [3]: 3.4e+08 M⁻¹ s⁻¹	anti-NGF canine IgGB antibody, Fc variant N434R + T286Y (antibody, part only; not given: anti-NGF variable domains and light chain, not shown: another chain or arm of the molecule) Fc: APEMLGGPSVFIFPPKPKDTLLIARTPEVTCVVVDLDPEDPEVQISWFVDGKQMQYAKTQPREEQFNGTYRVVSVLPIGHQDWLKGKQFTCKVNNKALPSPIERTISKARGQAHQPSVYVLPPSREELSKNTVSLTCLIKDFFPPDIDVEWQSNGQQEPESKYRTTPPQLDEDGSYFLYSKLSVDKSRWQRGDTFICAVMHEALHRHYTQESLSHSPGK
–	–	–	–	–	–	–	Kd [5]: 422 nM and 548 nM; WT KD Avg/Variant KD [5]: 1.34 and 1.03; koff [5]: 0.134 s⁻¹	canine IgGB Fc (CH2-CH3) K315A with N-terminal SASA tag (Fc fusion, part only; not given: SASA tag, not shown: another chain or arm of the molecule; small tags and cut ends) Fc: APEMLGGPSVFIFPPKPKDTLLIARTPEVTCVVVDLDPEDPEVQISWFVDGKQMQTAKTQPREEQFNGTYRVVSVLPIGHQDWLAGKQFTCKVNNKALPSPIERTISKARGQAHQPSVYVLPPSREELSKNTVSLTCLIKDFFPPDIDVEWQSNGQQEPESKYRTTPPQLDEDGSYFLYSKLSVDKSRWQRGDTFICAVMHEALHNHYTQESLSHSPGK
1130	0.134	119000	–	129	0.113	878000	–	anti-NGF canine IgGB antibody, Fc variant A426Y (antibody, part only; not given: Anti-NGF variable domains, not shown: another chain or arm of the molecule; small tags and cut ends) Fc: APEMLGGPSVFIFPPKPKDTLLIARTPEVTCVVVDLDPEDPEVQISWFVDGKQMQTAKTQPREEQFNGTYRVVSVLPIGHQDWLKGKQFTCKVNNKALPSPIERTISKARGQAHQPSVYVLPPSREELSKNTVSLTCLIKDFFPPDIDVEWQSNGQQEPESKYRTTPPQLDEDGSYFLYSKLSVDKSRWQRGDTFICYVMHEALHNHYTQESLSHSPGK
288	0.0591	206000	129	–	–	–	–	anti-NGF canine IgGB antibody, Fc variant A426Y + N434R (antibody, part only; not given: anti-NGF variable domains and light chain, not shown: another chain or arm of the molecule; small tags and cut ends) Fc: APEMLGGPSVFIFPPKPKDTLLIARTPEVTCVVVDLDPEDPEVQISWFVDGKQMQTAKTQPREEQFNGTYRVVSVLPIGHQDWLKGKQFTCKVNNKALPSPIERTISKARGQAHQPSVYVLPPSREELSKNTVSLTCLIKDFFPPDIDVEWQSNGQQEPESKYRTTPPQLDEDGSYFLYSKLSVDKSRWQRGDTFICYVMHEALHRHYTQESLSHSPGK
